Data as given in the supplement of paper PMC12042874.
± gives the uncertainty stated by the source.

Test: amyloid nucleation score (Sup35N fusion, yeast selection) (log enrichment); library NNK3; higher = more nucleation; inactive = no reads after selection
In short: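 Growth for 7 days at 30°C on medium lacking adenine and uracil followed a 24-hour induction with 100 μM copper sulfate of psi-negative yeast expressing peptides of 20 random codons fused to Sup35N. Input and output plasmid inserts were sequenced with Illumina, and sequences with under 100 input reads were excluded. Nucleation score is the DiMSum log enrichment of output over input reads, centred on the mode score of non-aggregating sequences.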

Substance	amyloid nucleation score
SFSIDLMTSLSWHLLSCRTF	inactive
SFSSFVFTMEALASAVSTHH	inactive
SFTAYVASLA	-0.151 ± 1.1
SFTRCWLNKREMKMYTFSAR	inactive
SFYYILYTGCVIGIVASLFK	-0.408 ± 0.58
SGCERAWMAVCENRSSCILG	inactive
SGDPSSLEDIGFVIYWRIYI	inactive
SGFYSLIVYNGFERALFVGS	inactive
SGKGKCVYNVLRQGFFSKMS	inactive
SGKILQRPLSWLSCVMQVES	inactive
SGLDFAYLDECSREGSVYAG	inactive
SGLRASSSVMSCAYLTISWN	inactive
SGQNKEQVVWMCTVRLPESS	inactive
SGSAELARLHYRMELKAPYL	inactive
SGTFYANVWFRFISFGWYLR	inactive
SHCVSTT	inactive
SHGGYACTSLIMTLIPLLYM	inactive
SHGHDSVTRNRQGPCGIRIY	inactive
SHIFCSFFKSSYLNSGWQHG	inactive
SHKFMRCGPQMASGCNWELA	inactive
SHPYLT	0.071 ± 0.35
SHVLWDGTWEVGGGGHKA	inactive
SHVNRVRSLYVGE	inactive

Substance	amyloid nucleation score
SIDLNGKG	inactive
SIFLGLRSRQLSFISLLEDG	inactive
SIFMCNIVLFKRVVLPRGAS	0.886 ± 0.18
SILLIFCLSKTRFSVMSFLP	inactive
SIMREMWWSDTLFGGMNRFW	0.992 ± 0.11
SIMYFVTNGCGNGC	1.79 ± 0.086
SIPLLTQMWTVNGNRRWQTA	inactive
SIRNFVTSENTVLSDIKPWR	inactive
SISYINRKHTRNDTPRLRGV	inactive
SIWEHRSNS	inactive
SIYFWCS	2.09 ± 0.065
SKCVGISLRALVYYGHSQVT	inactive
SKFFQQPWL	inactive
SKIFSCYVVLKSMLTDPGVA	inactive
SKLCELLSLQTAVAYMMSGA	inactive
SKLHAE	inactive
SKTGLDMADMIKRGDCGEST	inactive
SKVRICKDKGWSG	inactive
SKVWRYI	inactive
SKYKVCFTRSFF	inactive
SLCLYNSFLSSL	inactive
SLCRRWVNLDTGSPYGTL	inactive
SLDCARNFRFGQTVFCCVGY	1.21 ± 0.18

Substance	amyloid nucleation score
SLDFSSGDVKNLKCCNVLMK	inactive
SLDLALNMFFFLYAGSNFFF	inactive
SLEIEK	inactive
SLGLKIVVLESYGVSPVCCH	inactive
SLGSCFSTCAVVHQRMKLGG	inactive
SLGTIMFVCGGPRGHLCSVR	-0.414 ± 1.4
SLIGNSDSPWFLRQTCTYTK	inactive
SLKLRCLLGTSKVVMVDLFV	inactive
SLLCNHFPGHI	inactive
SLLGSRNRRSGWTQFVKLVW	inactive
SLLMYCRNTVSMSNNLSRHR	1.39 ± 0.11
SLLSIFVKGARLQISDVSQG	0.773 ± 0.18
SLMDNVLSFHFVVANWNTLD	inactive
SLMSSRSCVTRTLLARQVYL	inactive
SLNCDGSSDGRCAAYQIWLC	inactive
SLNLEENLSFHGVCRMYFNE	inactive
SLNLWGLRSKVPDVWRMLMR	inactive
SLPACKSGVKNTYVLYLTWN	1.19 ± 0.11
SLPGSKYKAFH	inactive
SLRDVVV	inactive
SLRYGREIKNMRQNCIDPWC	inactive
SLSSWLWVVLIVHCMSGRNS	inactive
SLTGLVILMAYRDPPGLAQF	1.46 ± 0.13

Substance	amyloid nucleation score
SLTYGRRWLFDWRSTMKGKA	inactive
SLWIIERCILDHQYGSFRRQ	1.65 ± 0.1
SLYHSLSGYHFCISMLL	inactive
SLYRSEVMVHAVVVYVYFGK	inactive
SLYWSAMRKYNVVRTIYSRW	inactive
SMCDMYYLVACTPHMIVQLY	-0.111 ± 0.69
SMDTE	0.734 ± 0.17
SMFNGNLSRSMWFWRVRVTP	inactive
SMGTFNMVRLSGTWGMSAMY	0.757 ± 0.15
SMSGWCVETFLRQEM	inactive
SMSIYPVCLTF	inactive
SMSSTSYIGSSLVMIARNKF	inactive
SMSWRSHEAMCTGSYFNLCD	inactive
SMYIIMVCSSVSCWYFNRGH	0.94 ± 0.18
SNACCGWAICCSPCGGKGVS	1.45 ± 0.13
SNAKWGNISVGSRDYRTIRS	1.48 ± 0.083
SNANKCGRMFEMKYRHNLCL	inactive
SNCNPEWQLLIMIDCYNYAL	inactive
SNCTLRE	inactive
SNDVKNVHP	inactive
SNFINVGSRLMTSWRGYAYM	inactive
SNGCKMYDKHVLYW	inactive
SNIVFVPRSLQRREDGRRMD	inactive

Substance	amyloid nucleation score
SNLRMRKNGVVDDIWPDERL	-0.802 ± 1.3
SNLVDGMSWHHFKERIVMLD	inactive
SNRGYTKRYF	inactive
SNSHWIYWYTNPGQHRPSHR	inactive
SNSSYWRICRLETCNPVGYK	inactive
SNVSVHGMIESMLWLSTRDI	inactive
SNWECLGGHENGINCRDI	inactive
SNYSV	inactive
SPALQMWKACTWLNRTLSPV	0.582 ± 0.15
SPDTVPIGGSSGTNVYLCMH	inactive
SPEPSVNRKHLVPLLPAAFE	inactive
SPFFYFFWPGFR	inactive
SPKAVSCNTFPIGYRISFFL	inactive
SPRAFTASVEGVSEL	inactive
SPRNMWI	inactive
SPYNPHAFVTYSFCVYKD	1.88 ± 0.098
SQKGCRH	inactive
SQPDCFNICDLHGRSSCVSK	inactive
SQWWNVDPRSTQCASGAMRC	inactive
SRCNIFGRPSASIAR	inactive
SRCNVYKKVVAYVLRRLTPE	0.166 ± 0.66
SRCWVYRKRTPCNVY	inactive
SRFKMICSRDRLNNRSVVLG	inactive

Substance	amyloid nucleation score
SRFRFMGNVRQFLQPYRRLH	0.347 ± 0.2
SRFRGAI	inactive
SRFYTL	inactive
SRNVGFGINSQQGLFFRVVV	inactive
SRNYLVSPIDAPEQQSCVEE	inactive
SRPLEMVLLLSWWIMSRKIP	inactive
SRQPRCALVVDVPP	inactive
SRRFTLPGGSMFTEVLM	inactive
SRRYFYIDIRYRNIKP	inactive
SRSIMSVLACHRMCERGPIW	0.827 ± 0.19
SRSINCFPMLILLVL	inactive
SRSLIRINWFRGKKLCYGFE	inactive
SRSLWTLNIVFRHDCYTGKL	-0.05 ± 0.57
SRSNQNCLPSASMNVYLSVT	inactive
SRTYKHKALAQFPYKYWCVP	inactive
SRVNFM	inactive
SSDNIVSGWWALSNKSATFV	inactive
SSDTGRCIKVDALRCRMGSR	inactive
SSFLKQLLGSVVNSVNVATV	inactive
SSFNIPMPSNYPKMIDLLFT	inactive
SSGKFIVLGRNAWTLAWTLT	inactive
SSGLFLSISLNDGWSRGVWS	2.77 ± 0.076
SSGPIRLERMDYWHHWGATL	inactive

Substance	amyloid nucleation score
SSGRSSPQWG	inactive
SSGYAFTGKVFYC	inactive
SSIAMHCILIVFLKGLCVFR	inactive
SSIDEIGSFV	inactive
SSIGVGSFCSVRCLYDHDTS	inactive
SSIHH	inactive
SSITRGLHVRKTSVSTLGV	inactive
SSIWSGMSLFGFREIMSYVI	inactive
SSKLFL	inactive
SSKSWLRYRVDEHTVSTFGF	inactive
SSLCYTHRACTCNFTKVDSF	inactive
SSLGSETRFSYKRVHIENWR	-0.97 ± 0.9
SSLLANRYVWLDKLRHWHWR	inactive
SSMAVQRGGNYITMIYGH	inactive
SSPYDCSVNYLKNVSPRTLY	inactive
SSQFTHEETGFCDVVPVVCG	inactive
SSRRYS	inactive
SSRVVAWLSFNGSIICLFTF	inactive
SSSSMFALLPICY	inactive
